Publication PMC2913173 (Journal of molecular biology, 2009)

Legend:
Test in all cases: flow cytometry on cells
[1] = target: T1, Bak(72–89) R88A–eCPX fusion displayed on E. coli (UniProt Q16611 72-89, R88A)
T1 chain (looked up): GQVGRQLAIIGDDINRAY

[2] = target: T2, Bak(72–88)–eCPX fusion displayed on E. coli (UniProt Q16611 72-88)
T2 chain (looked up): GQVGRQLAIIGDDINRR

[3] = target: T3, Bak(72–87)–eCPX fusion displayed on E. coli (UniProt Q16611 72-87)
T3 chain (looked up): GQVGRQLAIIGDDINR

[4] = target: T4, Bak(72–89) Y89A–eCPX fusion displayed on E. coli (UniProt Q16611 72-89, Y89A)
T4 chain (looked up): GQVGRQLAIIGDDINRRA

[5] = target: T5, Bak(72–89) R88Q–eCPX fusion displayed on E. coli (UniProt Q16611 72-89, R88Q)
T5 chain (looked up): GQVGRQLAIIGDDINRQY

[6] = target: T6, Bak(72–89)–eCPX fusion displayed on E. coli (UniProt Q16611 72-89)
T6 chain (looked up): GQVGRQLAIIGDDINRRY

[7] = target: T7, Bak(72–89) R88E–eCPX fusion displayed on E. coli (UniProt Q16611 72-89, R88E)
T7 chain (looked up): GQVGRQLAIIGDDINREY

B1: biotinylated Bcl-2 chimera (isoform 2): residues 1–34 of Bcl-2, residues 35–50 of Bcl-xL, residues 92–207 of Bcl-2 (other, UniProt P10415 1-34, looked up)
chain: MAHAGRTGYDNREIVMKYIHYKLSQRGYEWDAGDTEAPEGTESEMETPSAVVHLTLRQAGDDFSRRYRRDFAEMSSQLHLTPFTARGRFATVVEELFRDGVNWGRIVAFFEFGGVMCVESVNREMSPLVDNIALWMTEYLNRHLHTWIQDNGGWDAFVELYGPSMR
modifications: biotin on the lysine of the biotin acceptor peptide (…)
median fluorescence [1]: 24.6 AU | median fluorescence [2]: 8.3 AU | median fluorescence [3]: 2.1 AU | median fluorescence [4]: 11.9 AU | median fluorescence [5]: 11.1 AU | median fluorescence [6]: 19.1 AU | median fluorescence [7]: 8.4 AU
